# What was measured:
# Assay in all cases: pulldown
# HNRNPR (Gallus gallus) = biological target: T1, HNRNPR (Gallus gallus) (UniProt A0A8V0YGA1); settings: 20 nM protein, 1.5 uM RNA pool; 20 mM HEPES pH 7.8, 70 mM KCl, 10 mM NaCl, 10% glycerol, 2 mM DTT, 0.1 ug/uL BSA; 30 min, 4 C (protocol of this paper; not …); cited from earlier work
# T1 sequence: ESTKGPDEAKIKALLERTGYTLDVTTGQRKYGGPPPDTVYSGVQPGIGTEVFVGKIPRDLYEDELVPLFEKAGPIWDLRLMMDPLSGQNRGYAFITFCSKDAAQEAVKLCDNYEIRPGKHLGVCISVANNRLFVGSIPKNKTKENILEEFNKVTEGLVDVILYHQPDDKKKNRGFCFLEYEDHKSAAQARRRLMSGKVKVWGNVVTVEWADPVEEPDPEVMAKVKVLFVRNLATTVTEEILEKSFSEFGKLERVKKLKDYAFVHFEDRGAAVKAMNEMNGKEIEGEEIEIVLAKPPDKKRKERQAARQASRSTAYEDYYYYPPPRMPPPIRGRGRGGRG
# [1] = biological target: T2, hnrnpr (Xenopus tropicalis) (UniProt A0A8J0QQ94); settings: 20 nM protein, 1.5 uM RNA pool; 20 mM HEPES pH 7.8, 70 mM KCl, 10 mM NaCl, 10% glycerol, 2 mM DTT, 0.1 ug/uL BSA; 30 min, 4 C (protocol of this paper; not …); cited from earlier work
# T2 sequence: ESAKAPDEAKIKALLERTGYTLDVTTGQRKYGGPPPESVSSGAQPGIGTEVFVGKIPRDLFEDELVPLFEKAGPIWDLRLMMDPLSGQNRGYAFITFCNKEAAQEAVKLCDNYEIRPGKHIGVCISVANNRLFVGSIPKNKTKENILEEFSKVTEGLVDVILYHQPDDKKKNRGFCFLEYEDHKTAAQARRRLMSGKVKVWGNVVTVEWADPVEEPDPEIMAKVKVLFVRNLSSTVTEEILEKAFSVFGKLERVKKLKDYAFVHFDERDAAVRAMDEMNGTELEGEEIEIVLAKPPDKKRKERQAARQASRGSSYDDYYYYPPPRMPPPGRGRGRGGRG
# G3BP2 (Homo sapiens) = biological target: T3, G3BP2 (Homo sapiens) (UniProt Q9UN86); settings: 20 nM protein, 1.5 uM RNA pool; 20 mM HEPES pH 7.8, 70 mM KCl, 10 mM NaCl, 10% glycerol, 2 mM DTT, 0.1 ug/uL BSA; 30 min, 4 C (protocol of this paper; not …); cited from earlier work
# T3 sequence: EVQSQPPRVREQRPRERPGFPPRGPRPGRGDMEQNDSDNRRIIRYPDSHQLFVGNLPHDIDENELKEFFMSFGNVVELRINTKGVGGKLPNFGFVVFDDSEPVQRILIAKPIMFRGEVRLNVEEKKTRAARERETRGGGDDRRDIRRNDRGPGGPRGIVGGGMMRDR
# [2] = biological target: T4, PK27672.1 (Cannabis sativa) (UniProt A0A7J6HI09); settings: 20 nM protein, 1.5 uM RNA pool; 20 mM HEPES pH 7.8, 70 mM KCl, 10 mM NaCl, 10% glycerol, 2 mM DTT, 0.1 ug/uL BSA; 30 min, 4 C
# T4 sequence: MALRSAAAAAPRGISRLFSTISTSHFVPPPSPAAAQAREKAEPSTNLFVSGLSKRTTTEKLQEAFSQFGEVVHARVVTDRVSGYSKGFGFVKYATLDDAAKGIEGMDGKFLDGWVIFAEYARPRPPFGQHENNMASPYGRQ
# [3] = biological target: T5, AT1G76460 (Arabidopsis thaliana) (UniProt F4I2E4); settings: 20 nM protein, 1.5 uM RNA pool; 20 mM HEPES pH 7.8, 70 mM KCl, 10 mM NaCl, 10% glycerol, 2 mM DTT, 0.1 ug/uL BSA; 30 min, 4 C (protocol of this paper; not …); cited from earlier work
# T5 sequence: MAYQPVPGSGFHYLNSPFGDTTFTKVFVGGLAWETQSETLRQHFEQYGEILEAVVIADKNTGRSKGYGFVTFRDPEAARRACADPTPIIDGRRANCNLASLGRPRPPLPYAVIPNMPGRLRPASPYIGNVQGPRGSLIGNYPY
# hnrnpa0l (Danio rerio) = hnrnpa0l (Danio rerio) (UniProt A0ACM8Q088); settings: 20 nM protein, 1.5 uM RNA pool; 20 mM HEPES pH 7.8, 70 mM KCl, 10 mM NaCl, 10% glycerol, 2 mM DTT, 0.1 ug/uL BSA; 30 min, 4 C
# [4] = biological target: T6, spo5 (Schizosaccharomyces pombe) (UniProt Q2L4W6); settings: 20 nM protein, 1.5 uM RNA pool; 20 mM HEPES pH 7.8, 70 mM KCl, 10 mM NaCl, 10% glycerol, 2 mM DTT, 0.1 ug/uL BSA; 30 min, 4 C
# T6 sequence: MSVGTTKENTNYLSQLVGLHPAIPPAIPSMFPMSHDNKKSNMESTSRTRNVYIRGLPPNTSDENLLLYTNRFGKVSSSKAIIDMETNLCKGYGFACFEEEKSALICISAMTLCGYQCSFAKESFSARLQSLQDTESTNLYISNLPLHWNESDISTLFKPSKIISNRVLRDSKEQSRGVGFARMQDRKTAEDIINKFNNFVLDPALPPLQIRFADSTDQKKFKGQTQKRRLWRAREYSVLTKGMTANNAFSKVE
# [5] = biological target: T7, CBG14639 (Caenorhabditis briggsae) (UniProt A8XKC4); settings: 20 nM protein, 1.5 uM RNA pool; 20 mM HEPES pH 7.8, 70 mM KCl, 10 mM NaCl, 10% glycerol, 2 mM DTT, 0.1 ug/uL BSA; 30 min, 4 C
# T7 sequence: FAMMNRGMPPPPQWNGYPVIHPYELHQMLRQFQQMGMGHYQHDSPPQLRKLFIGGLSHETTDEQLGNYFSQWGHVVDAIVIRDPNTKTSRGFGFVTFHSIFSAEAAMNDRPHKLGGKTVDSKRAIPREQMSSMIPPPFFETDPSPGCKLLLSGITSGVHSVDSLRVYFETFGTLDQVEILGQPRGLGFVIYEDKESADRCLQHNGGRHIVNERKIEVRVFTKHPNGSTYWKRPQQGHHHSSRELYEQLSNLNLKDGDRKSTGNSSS
# [6] = biological target: T8, rnp-2 (Caenorhabditis elegans) (UniProt Q21322); settings: 20 nM protein, 1.5 uM RNA pool; 20 mM HEPES pH 7.8, 70 mM KCl, 10 mM NaCl, 10% glycerol, 2 mM DTT, 0.1 ug/uL BSA; 30 min, 4 C
# T8 sequence: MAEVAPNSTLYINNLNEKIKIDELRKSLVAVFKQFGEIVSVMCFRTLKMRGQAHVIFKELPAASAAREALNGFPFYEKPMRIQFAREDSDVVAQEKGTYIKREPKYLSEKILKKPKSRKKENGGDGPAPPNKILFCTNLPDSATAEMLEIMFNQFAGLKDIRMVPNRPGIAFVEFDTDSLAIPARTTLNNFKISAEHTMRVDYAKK
# Chain of hnrnpa0l (Danio rerio) (A0ACM8Q088 entry or part of it): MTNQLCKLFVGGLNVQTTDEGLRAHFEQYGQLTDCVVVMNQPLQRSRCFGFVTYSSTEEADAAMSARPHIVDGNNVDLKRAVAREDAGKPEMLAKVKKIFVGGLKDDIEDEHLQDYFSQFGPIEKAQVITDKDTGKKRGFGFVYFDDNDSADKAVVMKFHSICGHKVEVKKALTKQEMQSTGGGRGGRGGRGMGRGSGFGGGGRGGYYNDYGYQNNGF
substance,measurement,setting,value
AAAUU [RNAcompete motif RNCMPT00288],binding signal (z-score (mean of top ten 7-mers)),HNRNPR (Gallus gallus),6.51
AAAUU [RNAcompete motif RNCMPT00289],binding signal (z-score (mean of top ten 7-mers)),[1],8.84
AGGAUNA [RNAcompete motif RNCMPT00021],binding signal (z-score (mean of top ten 7-mers)),G3BP2 (Homo sapiens),8.75
AGUACA [RNAcompete motif RNCMPT00342],binding signal (z-score (mean of top ten 7-mers)),[2],9.79
AGUGUGA [RNAcompete motif RNCMPT00284],binding signal (z-score (mean of top ten 7-mers)),[3],8.11
AUAGGA [RNAcompete motif RNCMPT00340],binding signal (z-score (mean of top ten 7-mers)),hnrnpa0l (Danio rerio),10.9
AUAUUA [RNAcompete motif RNCMPT00311],binding signal (z-score (mean of top ten 7-mers)),[4],7.81
AUUAGG [RNAcompete motif RNCMPT00331],binding signal (z-score (mean of top ten 7-mers)),[5],8.86
GCACUU [RNAcompete motif RNCMPT00301],binding signal (z-score (mean of top ten 7-mers)),[6],27
